Reference: patent publication US20190382484A1 (Chugai, published 2019)
Where a chain is given by its changes, count along the chain named. Values belong to the binder of their own block, whether it stands above or below them.

What was measured:
[1] = molecular target: T1, FcγRIIIa extracellular domain (UniProt P08637 17-208, limits assumed); test: SPR (Biacore T200), mixed half molecules captured via biotinylated antigen peptide on CAP chip, FcγR as analyte, 25 C
T1 construct: extracellular domain; Purified over HisTrap, so a His tag is implied
Method: Interaction analysis of antibody-half molecules of interest and FcγR was performed using Biacore (registered trademark) T200. Biotin CAPture Kit, Series S (GE Healthcare) was used for the measurement, and HBS-EP+10X (GE Healthcare) diluted 1/10th was used as a running buffer. The measurement temperature was 25° C. For the sensor chip, Series S Sensor Chip CAP (GE Healthcare) onto which previously-biotinylated antigen peptides were allowed to interact and thereby immobilized was used. These chips were allowed to capture the antibody-half molecules of interest and then interact with FcγR diluted with the running buffer. The antigens and antibody-half molecules captured on the chip were washed as described in the instructions attached to the kit, and the chips were regenerated and reused.

[2] = molecular target: T1, FcγRIIIa extracellular domain; test: SPR (Biacore T200), half molecule captured via biotinylated antigen peptide on CAP chip, FcγR as analyte
[3] = molecular target: the molecule itself; test: size exclusion chromatography (G3000SWXL), absorbance 280 nm; self-association of the half molecule [panel b]
Method: The protein concentration of the antibody-half molecules was 0.25 mg/mL, and 80 μL was injected.
Evaluation of the molecular weight of the prepared antibody-half molecules A and B was carried out by size exclusion chromatography.

T1 sequence (P08637 17-208 limits assumed): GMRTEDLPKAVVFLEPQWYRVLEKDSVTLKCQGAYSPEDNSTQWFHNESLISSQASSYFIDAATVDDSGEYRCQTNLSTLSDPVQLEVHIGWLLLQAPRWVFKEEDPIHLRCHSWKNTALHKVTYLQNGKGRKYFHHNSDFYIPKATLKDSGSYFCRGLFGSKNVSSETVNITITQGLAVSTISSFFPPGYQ

B1: MRAH-DA303v2/MRAL-k0 + MRAH-DB220v2/MRAL-k0 (antibody, human IgG1, kappa)
heavy 1: QVQLQESGPGLVRPSQTLSLTCTVSGYSITSDHAWSWVRQPPGRGLEWIGYISYSGITTYNPSLKSRVTMLRDTSKNQFSLRLSSVTAADTAVYYCARSLARTTAMDYWGQGSLVTVSSASTKGPSVFPLAPSSKSTSGGTAALGCLVKDYFPEPVTVSWNSGALTSGVHTFPAVLQSSGLYSLSSVVTVPSSSLGTQTYICNVNHKPSNTKVDKKVEPKSCDKTHTSPPSPAPEYQWGPMVFLFPPKPKDTLMISRTPEVTCVVVDVSDEEPEVKFNWYVDGVEVHNAKTKPREEQYNATYRVVSVLTVLHQDWLNGKEYKCKVSNKALPAPIEKTISKAKGQPREPQVYTLPPSRKELTKNQVSLTCLVKGFYPSDIAVEWESNGQPENNYKTTPPYLDSDGSFFLYSDLTVDKSRWQQGNVFSCSVMHEALHNHYTQKSLSLSP
heavy 2: QVQLQESGPGLVRPSQTLSLTCTVSGYSITSDHAWSWVRQPPGRGLEWIGYISYSGITTYNPSLKSRVTMLRDTSKNQFSLRLSSVTAADTAVYYCARSLARTTAMDYWGQGSLVTVSSASTKGPSVFPLAPSSKSTSGGTAALGCLVKDYFPEPVTVSWNSGALTSGVHTFPAVLQSSGLYSLSSVVTVPSSSLGTQTYICNVNHKPSNTKVDKKVEPKSCDKTHTSPPSPAPELLGGPSVFLFPPKPKDTLMISRTPEVTCVVVDVSHEEPEVKFNWYVDGVEVHNAKTKPREEQYNSTYRVVSVLTVLHQDWLNGKEYKCKVSNDALPMPIEETISKAKGQPREPQVYTLPPSRDELTKNQVSLTCLVKGFYPSDIAVEWESNGQPENNYKTTPPYLDSDGSFFLYSDLTVDKSRWQQGNVFSCSVMHEALHNHYTQESLSLSP
light: not shown
notes: Mixture of the two antibody-half molecules, which form a non-covalent heterodimer when captured on antigen; also called A1 + B1
Kd [1]: 6.1 nM

B2: MRAH-DA303v2/MRAL-k0 (antibody, human IgG1, kappa)
heavy: B1 heavy 1
light: not shown
notes: Antibody-half molecule (one H chain, one L chain); L chain MRAL-k0; also called A1; antibody-half molecule A1
binding result [2]: no binding

B3: MRAH-DA405v2/MRAL-k0 (antibody, human IgG1, kappa)
heavy: B1 heavy 1 with D411T
light: not shown
notes: Antibody-half molecule (one H chain, one L chain); also called A3; antibody-half molecule A3
binding result [2]: no binding

B6: MRAH-DA405v2/MRAL-k0 + MRAH-DB405v2/MRAL-k0 (antibody, human IgG1, kappa)
heavy 1: B1 heavy 1 with D411T
heavy 2: B1 heavy 2 with D411T
light: not shown
notes: Mixture of the two antibody-half molecules, which form a non-covalent heterodimer when captured on antigen; also called A3 + B3
Kd [1]: 1.2 nM

B14: MRAH-DA424v2/MRAL-k0 + MRAH-DB424v2/MRAL-k0 (antibody, human IgG1, kappa)
heavy 1: B1 heavy 1 with E359N
heavy 2: B1 heavy 2 with E359N
light: not shown
notes: Mixture of the two antibody-half molecules, which form a non-covalent heterodimer when captured on antigen; also called A4 + B4
Kd [1]: 10 nM

B15: MRAH-DA402v2/MRAL-k0 + MRAH-DB402v2/MRAL-k0 (antibody, human IgG1, kappa)
heavy 1: B1 heavy 1 with D411H
heavy 2: B1 heavy 2 with D411H
light: not shown
notes: Mixture of the two antibody-half molecules, which form a non-covalent heterodimer when captured on antigen; also called A2 + B2
Kd [1]: 0.95 nM

B16: EGLVH-wtIgG4C4/EGLVL-k0 (antibody, V domains shown)
VH: QDQLVQSGAEVKKPGASVKVSCKASGFNIKDTYIQWVRQAPGQGLEWMGRIDPLRKQTKYREKFEGRVTITADTSTNTAYMELSSLRSEDTAVYYCVRSGREFDYWGQGTLVTVSS
VL: DIQMTQSPSSLSASVGDRVTITCRASQDIHKYIAWYQQKPGQAPRLLIQYTSTLQPGVPSRFSGSGSGTDYTFTISSLQPEDIATYYCLQYEQLRTFGGGTKVEIKR
notes: also called control of the half molecule state of antibody
binding result [3]: no binding (tested: 0.25 mg/mL injected)

Other lines, results leading:

Kd [1]: 53 nM
B4: MRAH-DA430v2/MRAL-k0 + MRAH-DB430v2/MRAL-k0 (antibody, human IgG1, kappa)
heavy 1: B1 heavy 1 with E359L
heavy 2: B1 heavy 2 with E359L
light: not shown
notes: Mixture of the two antibody-half molecules, which form a non-covalent heterodimer when captured on antigen; also called A5 + B5

binding result [2]: no binding
B5: MRAH-DB430v2/MRAL-k0 (antibody, human IgG1, kappa)
heavy: B1 heavy 2 with E359L
light: not shown
notes: Antibody-half molecule (one H chain, one L chain); also called B5; antibody-half molecule B5

binding result [2]: no binding
B7: MRAH-DA424v2/MRAL-k0 (antibody, human IgG1, kappa)
heavy: B1 heavy 1 with E359N
light: not shown
notes: Antibody-half molecule (one H chain, one L chain); also called antibody-half molecule A4

binding result [2]: no binding
B8: MRAH-DB405v2/MRAL-k0 (antibody, human IgG1, kappa)
heavy: B1 heavy 2 with D411T
light: not shown
notes: Antibody-half molecule (one H chain, one L chain); also called B3; antibody-half molecule B3

binding result [2]: no binding
B9: MRAH-DA430v2/MRAL-k0 (antibody, human IgG1, kappa)
heavy: B1 heavy 1 with E359L
light: not shown
notes: Antibody-half molecule (one H chain, one L chain); also called A5; antibody-half molecule A5

binding result [2]: no binding
B10: MRAH-DA402v2/MRAL-k0 (antibody, human IgG1, kappa)
heavy: B1 heavy 1 with D411H
light: not shown
notes: Antibody-half molecule (one H chain, one L chain); also called A2; antibody-half molecule A2

binding result [2]: no binding
B11: MRAH-DB402v2/MRAL-k0 (antibody, human IgG1, kappa)
heavy: B1 heavy 2 with D411H
light: not shown
notes: Antibody-half molecule (one H chain, one L chain); also called B2; antibody-half molecule B2

binding result [2]: no binding
B12: MRAH-DB220v2/MRAL-k0 (antibody, human IgG1, kappa)
heavy: B1 heavy 2
light: not shown
notes: Antibody-half molecule (one H chain, one L chain); also called B1; antibody-half molecule B1

binding result [2]: no binding
B13: MRAH-DB424v2/MRAL-k0 (antibody, human IgG1, kappa)
heavy: B1 heavy 2 with E359N
light: not shown
notes: Antibody-half molecule (one H chain, one L chain); also called antibody-half molecule B4
